# T1: MUC1* extra cellular domain peptides (Homo sapiens, UniProt P15941)
# T1 sequence (P15941 1110-1154): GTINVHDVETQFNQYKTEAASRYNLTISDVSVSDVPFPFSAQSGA
# B1: NME7-AB: recombinant human NME7 of NDPK A and B domains without the DM10 leader sequence, ~33 kDa (SEQ ID NO:39) (protein, listed as Homo sapiens)
# chain: MEKTLALIKPDAISKAGEIIEIINKAGFTITKLKMMMLSRKEALDFHVDHQSRPFFNELIQFITTGPIIAMEILRDDAICEWKRLLGPANSGVARTDASESIRALFGTDGIRNAAHGPDSFASAAREMELFFPSSGGCGPANTAKFTNCTCCIVKPHAVSEGLLGKILMAIRDAGFEISAMQMFNMDRVNVEEFYEVYKGVVTEYHDMVTEMYSGPCVAMEIQQNNATKTFREFCGPADPEIARHLRPGTLRAIFGKTKIQNAVHCTDLPEDGLLEVQYFFKILDN
# modifications: Human NME7-AB
# Tests used:
# [1] = target: T1, MUC1* extra cellular domain peptides; experiment: ELISA sandwich assay, NME7-AB dimerizes MUC1* peptide (FIG. 8); type: binding
# Text: We made several constructs for expression of a human NME7. One of these constructs expressed well in E. coli, was secreted in soluble form as a monomer and functioned approximately as NME1 dimers did for promoting stem cell growth, pluripotency and inhibition of differentiation. In this construct, the leader sequence “DM10” was omitted from the sequence. This generated a species that was approximately the same molecular weight, 33 kDa, as the secreted form of the protein. The protein was made as a Histidine tagged protein and first purified over an NTA-Ni column, then by FPLC with greater than 98% purity. We call this form of NME7, NME7-AB. […]
# The PSMGFR peptide bearing a C-terminal Cysteine (PSMGFR-Cys) was covalently coupled to BSA using Imject Maleimide activated BSA kit (Thermo Fisher). […] After 1h at RT the plate was washed 3× with PBS-T and binding of NME7 was measured at 415 nm using a ABTS solution (Pierce). […]
# After 1h at RT the plate was washed 3× with PBS-T and HisTagged PSMGFR peptide (PSMGFR-His) or biotinylated PSMGFR peptide (PSMGFR-biotin), diluted in PBS-T+1% BSA, was added at different concentration. […] After 1h at RT the plate was washed 3× with PBS-T and binding of PSMGFR peptide to NME7 already bound to another PSMGFR peptide (which could not signal by anti-His antibody or by streptavidin) coupled BSA was measured at 415 nm using a ABTS solution (Pierce).
# T47D breast cancer cells = experiment: engraftment and growth of T47D cells mixed with NME7-AB in mice (FIG. 51); type: in vivo, Immune-compromised mice
# Text: For example, some cancer cells are very difficult to engraft in animals. We increased the engraftment rate of cancer cells by several fold by injecting the animal with human NME7 or NME7-AB. Immune-compromised mice were implanted with T47D breast cancer cells that were mixed 50/50 vol/vol with either Matrigel or NME7-AB. After 10 days, the mice that had received the NME7 mixed cells were additionally injected with NME7-AB every day (FIG. 51). […] Engraftment rates, decreased numbers of required cells and a faster tumor growth rate resulted when NME7-AB was mixed with the cancer cells when implanted and when the mice were injected every 24 or 48 hours after implantation. A range of ratios of cancer cells to NME7 or the injection schedule of NME7 is expected to vary from one mouse strain to another and from one tumor type to another. In an improvement over this method, animals that are transgenic for human NME7 or NME7-AB greatly increase engraftment rates of cancer cells and thus, decrease the number of cells required to develop into a tumor in an animal. This allows growth of primary patient cancer cells in an animal expressing human NME7 or NME7-AB.
molecule,measurement,setting,value
B1,simultaneous binding of two MUC1* extra cellular domain peptides (ELISA),[1],can simultaneously bind two MUC1* extra cellular domain peptides
same,engraftment rate of cancer cells,T47D breast cancer cells; animal injected with human NME7 or NME7-AB,several fold
same,tumor size and growth rate,"T47D breast cancer cells; cells mixed 50/50 vol/vol with NME7-AB, then injected every day, tumor promotion",larger tumors that grew at an accelerated rate
